Patent publication US7235648B1, “Yeast cells engineered to produce pheromone system protein surrogates, and uses therefor” (Cadus Technologies, Inc., priority 1993, dated 2007)
Residue numbers refer to the chain shown, from its start. Ends that are not written are not given here.

T1: STE2 receptor (Saccharomyces cerevisiae, UniProt D6VTK4)
T1 construct: endogenous in cells; host or cells: S. cerevisiae MATa CY588 / CY1455
T1 sequence (D6VTK4 1-431): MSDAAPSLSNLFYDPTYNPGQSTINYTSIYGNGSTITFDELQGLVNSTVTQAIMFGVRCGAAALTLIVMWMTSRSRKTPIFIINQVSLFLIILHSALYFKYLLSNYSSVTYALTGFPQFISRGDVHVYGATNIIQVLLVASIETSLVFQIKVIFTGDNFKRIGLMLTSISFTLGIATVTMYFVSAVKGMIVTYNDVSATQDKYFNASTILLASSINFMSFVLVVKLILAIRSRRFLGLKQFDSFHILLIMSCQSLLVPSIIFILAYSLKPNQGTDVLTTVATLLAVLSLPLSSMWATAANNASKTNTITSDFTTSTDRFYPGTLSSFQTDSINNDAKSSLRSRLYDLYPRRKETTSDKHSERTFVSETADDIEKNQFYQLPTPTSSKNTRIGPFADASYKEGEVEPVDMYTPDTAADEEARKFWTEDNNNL

T2: yeast Gβγ (Saccharomyces cerevisiae, UniProt P18851+P18852)
T2 construct: Endogenous Gβγ subunits will be provided by the yeast STE4 and STE18 loci; endogenous in cells; host or cells: S. cerevisiae gpa1 tester strains
T2 sequence (P18851 1-423): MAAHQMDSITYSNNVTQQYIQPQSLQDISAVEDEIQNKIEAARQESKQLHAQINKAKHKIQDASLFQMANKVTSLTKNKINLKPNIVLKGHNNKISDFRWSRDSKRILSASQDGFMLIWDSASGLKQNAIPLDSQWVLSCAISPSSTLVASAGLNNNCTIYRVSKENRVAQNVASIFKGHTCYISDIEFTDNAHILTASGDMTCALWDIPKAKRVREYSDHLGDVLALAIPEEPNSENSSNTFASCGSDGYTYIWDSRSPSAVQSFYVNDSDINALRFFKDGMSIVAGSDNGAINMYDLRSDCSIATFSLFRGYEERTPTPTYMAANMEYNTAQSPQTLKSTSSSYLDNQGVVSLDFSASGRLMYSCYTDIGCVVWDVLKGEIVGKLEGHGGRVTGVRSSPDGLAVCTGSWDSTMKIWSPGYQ
T2 sequence (P18852 1-107 limits assumed): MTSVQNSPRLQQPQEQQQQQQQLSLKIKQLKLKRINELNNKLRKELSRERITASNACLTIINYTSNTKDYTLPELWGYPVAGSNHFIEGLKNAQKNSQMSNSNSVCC

B1: GPA141-Gαi3: first 41 amino acids of GPA1 fused to human Gαi3 (protein)
chain: MGCTVSTQTIGDESDPFLQNKRANDVIEQSLQLEKQRDKNEVKLLLLGAGESGKSTIVKQMKIIHE
B2: GPA41-Gα16: first 41 amino acids of GPA1 fused to Gα16 (protein)
chain: B1 chain with V42L, A49P, I57F, V58I, K62R, E66G
B3: GPA41-Gαoa: first 41 amino acids of GPA1 fused to Gαoa (protein)
chain: MGCTVSTQTIGDESDPFLQNKRANDVIEQSLQLEKQRDKNEVKLLLLGAGESGKSTIVKQMKIIHEDGFSGEDVKQYKPVVYSNTIQSLAAIVRAMDTLGIEYGDKERKADAKMVCDVVSRMEDTEPFSAELLSAMMRLWGDSGIQECFNRSREYQLNDSAKYYLDSLDRIGAADYQPTEQDILRTRVKTTGIVETHFTFKNLHFRLFDVGGQRSERKKWIHCFEDVTAIIFCVALSGYDQVLHEDETTNRMHESLMLFDSICNNKFFIDTSIILFLNKKDLFGEKIKKSPLTICFPEYTGPNTYEDAAAYIQAQFESKNRSPNKEIYCHMTCATDTNNIQVVFDAVTDIIIANNLRGCGLY
B4: GPA41-Gαob: first 41 amino acids of GPA1 fused to Gαob (protein)
chain: MGCTVSTQTIGDESDPFLQNKRANDVIEQSLQLEKQRDKNEVKLLLLGAGESGKSTIVKQMKIIHEDGFSGEDVKQYKPVVYSNTIQSLAAIVRAMDTLGIEYGDKERKADAKMVCDVVSRMEDTEPFSAELLSAMMRLWGDSGIQECFNRSREYQLNDSAKYYLDSLDRIGAADYQPTEQDILRTRVKTTGIVETHFTFKNLHFRLFDVGGQRSERKKWIHCFEDVTAIIFCVALSGYDQVLHEDETTNRMHESLKLFDSICNNKWFTDTSIILFLNKKDIFEEKIKKSPLTICFPEYTGPSAFTEAVAYIQAQYESKNKSAHKEIYTHVTCATDTNNIQFVFDAVTDVIIAKNLRGCGLY

Experiments:
STE2 receptor = biological target: T1, STE2 receptor; assay: Autocrine MATa yeast (CY588/CY1455) growth on histidine-deficient medium plus aminotriazole, fus1-HIS3 readout; type: cell-based; details: for agonist activity on the STE2 receptor, α-Mid-5 library: CY1455, -His medium with 0.5 mM or 1 mM aminotriazole, starburst phenotype
Text: A MATa strain designed for the expression of peptides in the context of MFα1 (i.e., using the MFα1 expression vector. Cadus 1215) has been constructed. The genotype of this strain, which we designate CY588, is MATa bar1 far1-1 fus1-HIS3 ste14::TRP1 ura3 trp1 leu2 his3. The bar1 mutation eliminates the strain's ability to produce a protease that degrades α-factor and that may degrade some peptides encoded by the cloned oligonucleotides; the far1 mutation abrogates the arrest of growth which normally follows stimulation of the pheromone response pathway; an integrated FUS1-HIS3 hybrid gene provides a selectable signal of activation of the pheromone response pathway; and, finally, the ste14 mutation lowers background of the FUS1-HIS3 readout. The enzymes responsible for processing of the MFα1 precursor in MATα cells are also expressed in MATa cells (Sprague and Thorner, in The Molecular and Cellular Biology of the Yeast Saccharomyces: Gene Expression, 1992. Cold Spring Harbor Press), therefore, CY588 cells should be able to secrete peptides encoded by oligonucleotides expressed from plasmid Cadus 1215.
Experiments were performed to test: 1. the ability of Cadus 1215 to function as a vector for the expression of peptides encoded by synthetic oligonucleotides; 2. the suitability of the oligonucleotides, as designed, to direct the secretion of peptides through the α-factor secretory pathway; 3. the capacity of CY588 to secrete those peptides; and 4. the ability of CY588 to respond to those peptides that stimulate the pheromone response pathway by growing on selective media. These experi-ments were performed using an oligonucleotide which encodes the 13 amino acid α-factor; i.e., the degenerate sequence (NNN)n in the oligonucleotide cloned into Cadus 1215 (see above) was specified (n=13) to encode this pheromone. CY588 was transformed with the resulting plasmid (Cadus 1219), and transformants selected on uracil-deficient medium were transferred to histidine-deficient medium supplemented with a range of concentrations of aminotriazole (an inhibitor of the HIS3 gene product that serves to reduce background growth). […] CY588 is competent for the secretion of a peptide encoded by the (NNN)n sequence of the synthetic oligonucleotide cloned into and expressed from Cadus 1215; and 2. CY588 can, in an autocrine fashion, respond to a secreted peptide which stimulates its pheromone response pathway, in this case by α-factor binding to STE2. Additional experiments were performed to test the utility of autocrine yeast strains in identifying agonists of the Ste2 receptor from among members of two semi-random α-factor libraries, α-Mid-5 and MFα-8. α-Mid-5 Library
To identity peptide members of the α-Mid-5 library that could act as agonists on the STE2 receptor. CY1455, a high transforming version of CY588, was electroporated to enhance uptake of α-Mid-5 DNA. Transformants were selected on uracil-deficient (-Ura) synthetic complete medium and were transferred to histidine-deficient (-His) synthetic complete medium supplemented with 0.5 mM or 1 mM aminotriazole.
Yeast able to grow on -His+aminotriazole medium include (1) yeast which are dependent on the expression of an α-factor variant agonist and (2) yeast which contain mutations that result in constitutive signalling along the pheromone pathway. […] Thus a recognizable formation (termed a “starburst”) results, consisting of a central colony, growing by virtue of autocrine stimulation of the pheromone pathway, surrounded by satellite colonies, growing by virtue of paracrine stimulation of the pheromone pathway by the agonist peptide as that ptpetide diffuses radially fromn the central, secreting colony.
In order to identify the peptide sequence responsible for this “starburst” phenomenon, yeast were transferred from the center of the “starburst” and streaks were made on -Ura medium to obtain single colonies. […]

yeast Gβγ = biological target: T2, yeast Gβγ; assay: Coupling of Gα subunits and hybrids to yeast Gβγ: complementation of gpa1 growth arrest phenotype and fus1-HIS3 transcription; type: cell-based
Text: We have tested the hypothesis that there are switch region determinants involved in the association of Gα with Gβγ by constructing a series of hybrid Gα proteins encoding portions of GPA1 and GαS in different combinations (FIG. 11).
Preferably, levels of Gα and Gβγ subunits are balanced. For example, heterologous Gα subunits may be expressed from a low copy (CEN ARS) vector containing the endogenous yeast GPA1 promotor and the GPA1 3′ untranslated region. The minimum criterion, applied to a heterologous Gα subunit with respect to its ability to couple functionally to the yeast pheromone pathway, is that it complement a gpa1 genotype when expressed from the GPA1 promoter on low copy plasmids or from an integrated, single copy gene. In the work described in this application, all heterologous Gα subunits have been assayed in two biological systems.

| Molecule | agonist activity on the STE2 receptor, α-Mid-5 library (STE2 receptor) | functional complementation of the growth arrest phenotype of gpa1 strains (yeast Gβγ) | other results |
| --- | --- | --- | --- |
| Trp His Trp Leu Gln Leu Lys Pro Gly Gln Pro Met Tyr (chain 1 WHWLQLKPGQPMY; chain 2 WHWLQLKPGQPMY) [α-factor, yeast tridecapeptide mating pheromone, reference compound] |  |  | ability to grow on histidine-deficient media supplemented with aminotriazole (autocrine response, α-factor binding to STE2) (STE2 receptor; CY588 transformed with Cadus 1219, range of aminotriazole concentrations): ability to grow on histidine-deficient media supplemented with aminotriazole |
| WHWLSLVPGQPMY [M7] | agonists |  |  |
| WHWLQLSAGQPMY [M4] | agonists |  |  |
| WHWLRLQSGQPMY [M5] | agonists |  |  |
| WHWLSLYPGQPMY [M8] | agonists |  |  |
| WHWLRLSAGQPMY [M6] | agonists |  |  |
| WHWLSLSPGQPMY [M1] | agonists |  |  |
| WHWLRLQPGQPMY [M9] | agonists |  |  |
| Trp His Tip Leu Thr Leu MetAla Gly Gin Pro Met Tyr (WHWLTLMAGQPMY) [M3] | agonists |  |  |
| WHWLSLDAGQPMY [M2] | agonists |  |  |
| GPA41-S: N-terminal 41 amino acids of GPA1 linked to Gαs sequence 42-394 |  | functionally complement |  |
| B1 |  | functionally complement |  |
| B2 |  | functionally complement |  |
| B3 |  | do not |  |
| B4 |  | do not |  |
